Our source for the IC50 (read off the curve); STAT3-SEAP reporter, canine IL-31 stimulation values is patent US20250388683A1.

The assay deals with canine IL-31 (canine).

In the case of “Cytopoint® (Lokivetmab), a canine anti-IL31 (Cas number: 1533403-95-0) (antibody)”, the IC50 (read off the curve); STAT3-SEAP reporter, canine IL-31 stimulation lay within 1 to 10 nM.
“Tirnovetmab, a canine anti-IL31 (Cas number: 2364504-80-1) (antibody)”: the IC50 (read off the curve); STAT3-SEAP reporter, canine IL-31 stimulation worked out at 3 nM.
